We go through one protein from patent publication US20080044422A1 (Janssen / Centocor, published 2008).

This data set concerns the molecule itself. Kind of data set: SELDI mass spectrometry of the purified protein alone, non-reduced sample (self-association). The procedure: Recombinantly expressed proteins were analyzed by SDS-PAGE, anti-myc western blot, MALDI-MS, and SEC HPLC. In addition, O-linked glycosylation was analyzed by first treating the proteins with O-glycosidase with and without sialidase. The released O-glycans were labeled with anthranilic acid and analyzed by HPLC. The truncated CNGH0010.2 protein containing exons 1-5, 8, 9, 12, and 13 (SEQ ID NO:41) is predicted to be 37.5 kDa. […] In addition, it appears as if the molecule has a propensity to multimerize, as non-reduced analysis by SDS-PAGE, SELDI-MS (FIG. 5), and SEC-HPLC (FIG. 6), all indicate that dimeric and trimeric forms of the truncated CNGH0010.2 molecule exist in solution.

B1: truncated CNGH0010.2 protein containing exons 1-5, 8, 9, 12, and 13 (other)
chain: GPLQSGEESTGTNIGEALGHGLGDALSEGVGKAIGKEAGGAAGSKVSEALGQGTREAVGTGVRQVPGFGAADALGNRVGEAAHALGNTGHEIGRQAEDVIRHGADAVRGSWQGVPGHNGAWETSGGHGIFGSQGGLGGQGQGNPGGLGTPWVHGYPGNSAGSFGMNPQGAPWGQGGNGGPPNFGTNTQGAVAQPGYGSVRASNQNEGCTNPPPSGSGGGSSNSGGGSGSQSGSSGSGSNGDNNNGSSSGGSSSGSSSGGSSGGSSGGSSGNSGGSRGDSGSESSWGSSTGSSSGNHGGSGGGDGHKPGCEKPGNEARGSGESGIQGQGSSWGSGGGDAVGGVNTVNSETS
modifications: O-linked oligosaccharides (sites not given)
notes: The signal peptide (probably residues 1-21, same exon 1) is cleaved in the secreted protein; also called CNGH0010 (exons 1-13); His tagged CNGH0010.2 fusion protein; not shown: C-terminal hexa-His (myc-His vector) tag
Consider B1, for which the binding result is “binds”.
